Measurements taken from the Human Domainome abundance scans (Beltran et al. 2025).
± gives the uncertainty stated by the source.

B1: Zinc finger MYM-type protein 6, residues 427 to 504; numbered along this chain, O95789 (parent)
chain: KLKCQHCNHLFATKPELLFYKGKMFLFCGKNCSDEYKKKNKVVAMCDYCKLQKIIKETVRFSGVDKPFCSEVCKFLSA
B2: Far upstream element-binding protein 3, residues 75 to 150; numbered along this chain, Q96I24 (parent)
chain: RTVITEEFKVPDKMVGFIIGRGGEQISRIQAESGCKIQIASESSGIPERPCVLTGTPESIEQAKRLLGQIVDRCRN

Variants of: B1
Assay: abundance fitness (aPCA) (normalised: wild type 0, dead -1); higher = more abundant; growth selection in yeast, the domain comes from the species named
Conditions: Homo sapiens
Work on V72L yielded an abundance fitness of 0.003 ± 0.12.
With D65V the abundance fitness was -0.232 ± 0.1.
Variant D65C has an abundance fitness of -0.284 ± 0.4.
For I55M, the abundance fitness was 0.211 ± 0.31.
For I55W, the abundance fitness was -0.623 ± 0.17.
In the case of L17E, the abundance fitness is reported as 0.166 ± 0.037.
L17C gave an abundance fitness of -0.011 ± 0.046.
Work on L17Q yielded an abundance fitness of 0.156 ± 0.054.
V64I showed an abundance fitness of 0.365 ± 0.2.
V64M showed an abundance fitness of 0.606 ± 0.095.
For K50N, the abundance fitness was -0.23 ± 0.17.
Variant K50G has an abundance fitness of -0.228 ± 0.076.
In the case of K50Q, the abundance fitness is reported as 0.164 ± 0.17.
In the case of Q5A, the abundance fitness is reported as -0.023 ± 0.031.
Q5G gave an abundance fitness of -0.041 ± 0.027.
Work on E16Y yielded an abundance fitness of -0.194 ± 0.2.
Work on F27S yielded an abundance fitness of -0.459 ± 0.039.
With C7P the abundance fitness was -1.07 ± 0.11.
Variant C7K has an abundance fitness of -0.451 ± 0.095.
N40K showed an abundance fitness of -0.105 ± 0.059.
Variant N40L has an abundance fitness of -0.191 ± 0.077.
Variant S62G has an abundance fitness of 0.327 ± 0.07.
For F68S, the abundance fitness was -0.842 ± 0.17.
With F68A the abundance fitness was -0.036 ± 0.12.
For P67K, the abundance fitness was 0.486 ± 0.17.
With K14E the abundance fitness was -0.053 ± 0.033.
For K14Y, the abundance fitness was -0.492 ± 0.11.
Work on G22V yielded an abundance fitness of -0.255 ± 0.047.
In the case of F25D, the abundance fitness is reported as -0.031 ± 0.046.
F25S gave an abundance fitness of -0.036 ± 0.038.
In the case of F75T, the abundance fitness is reported as 0.557 ± 0.096.
S77W showed an abundance fitness of -0.106 ± 0.093.
S77D showed an abundance fitness of -0.14 ± 0.17.
With K3V the abundance fitness was -0.138 ± 0.034.
With K3S the abundance fitness was 0.021 ± 0.042.
With K1V the abundance fitness was -0.355 ± 0.039.
In the case of K1W, the abundance fitness is reported as -0.536 ± 0.038.
S33F showed an abundance fitness of -0.289 ± 0.12.
In the case of S33H, the abundance fitness is reported as -0.192 ± 0.081.
S33D showed an abundance fitness of -0.217 ± 0.049.
Variant F61A has an abundance fitness of 0.209 ± 0.073.
With F61L the abundance fitness was 0.302 ± 0.09.
Variant C28N has an abundance fitness of -0.367 ± 0.11.
With F11I the abundance fitness was -0.25 ± 0.13.
With D47H the abundance fitness was 0.26 ± 0.23.
Variant K30Q has an abundance fitness of -0.096 ± 0.055.
With L10K the abundance fitness was 0.017 ± 0.039.
In the case of L10E, the abundance fitness is reported as 0.063 ± 0.04.
Variant Y36V has an abundance fitness of -0.15 ± 0.038.
In the case of I54R, the abundance fitness is reported as 0.157 ± 0.068.
With K53S the abundance fitness was -0.431 ± 0.15.
Work on K53M yielded an abundance fitness of -0.189 ± 0.21.
For K23H, the abundance fitness was -0.048 ± 0.039.
Work on R60N yielded an abundance fitness of 0.366 ± 0.19.
Variant R60S has an abundance fitness of 0.39 ± 0.13.
Y48C showed an abundance fitness of 0.426 ± 0.21.
H9C showed an abundance fitness of -0.085 ± 0.042.
With N8Q the abundance fitness was 0.044 ± 0.04.
Variant S70M has an abundance fitness of -0.482 ± 0.21.
S70C gave an abundance fitness of -0.425 ± 0.2.
In the case of K56M, the abundance fitness is reported as 0.511 ± 0.12.
T58K gave an abundance fitness of 0.055 ± 0.44.
In the case of C69K, the abundance fitness is reported as -0.637 ± 0.18.
With K66M the abundance fitness was 0.325 ± 0.15.
With K66H the abundance fitness was -0.091 ± 0.19.
K66W gave an abundance fitness of -0.845 ± 0.28.
With M24C the abundance fitness was -0.004 ± 0.041.
Variant D34V has an abundance fitness of -0.017 ± 0.032.
In the case of L26D, the abundance fitness is reported as -0.066 ± 0.056.
Y20M gave an abundance fitness of -0.062 ± 0.056.
A12V gave an abundance fitness of -0.223 ± 0.034.
Work on G29T yielded an abundance fitness of -0.145 ± 0.045.
G29P showed an abundance fitness of -0.683 ± 0.069.
For E71K, the abundance fitness was 0.16 ± 0.17.
In the case of E71Y, the abundance fitness is reported as -0.28 ± 0.19.
In the case of L51A, the abundance fitness is reported as 0.187 ± 0.077.
For K37L, the abundance fitness was -0.134 ± 0.035.
Variant F19R has an abundance fitness of 0.103 ± 0.03.
F19A gave an abundance fitness of 0.057 ± 0.03.
Work on T13E yielded an abundance fitness of -0.06 ± 0.04.
Work on H6Q yielded an abundance fitness of -0.098 ± 0.037.
A44E gave an abundance fitness of -0.112 ± 0.16.
For E57L, the abundance fitness was -0.711 ± 0.25.
For E57C, the abundance fitness was 0.163 ± 0.27.
With E57D the abundance fitness was 0.002 ± 0.3.
Q52C showed an abundance fitness of -0.576 ± 0.23.
L18K gave an abundance fitness of -0.059 ± 0.088.

Variants of: B2
Assay: as above
Conditions: Homo sapiens
V15E showed an abundance fitness of -0.183 ± 0.033.
With V15I the abundance fitness was -0.111 ± 0.051.
With V15F the abundance fitness was -0.072 ± 0.053.
Work on V15A yielded an abundance fitness of -0.059 ± 0.03.
Work on V15D yielded an abundance fitness of -0.324 ± 0.047.
With V15G the abundance fitness was -0.135 ± 0.027.
Work on V15H yielded an abundance fitness of -0.218 ± 0.051.
In the case of V15C, the abundance fitness is reported as -0.108 ± 0.038.
P11E gave an abundance fitness of -0.109 ± 0.041.
P11T gave an abundance fitness of -0.136 ± 0.041.
Variant P11F has an abundance fitness of -0.422 ± 0.076.
Variant P11A has an abundance fitness of -0.219 ± 0.033.
Variant P11H has an abundance fitness of -0.217 ± 0.066.
For P11G, the abundance fitness was -0.254 ± 0.031.
P11C gave an abundance fitness of -0.239 ± 0.048.
In the case of P11S, the abundance fitness is reported as -0.182 ± 0.037.
P11Y showed an abundance fitness of -0.303 ± 0.068.
P11D showed an abundance fitness of -0.061 ± 0.056.
P11Q showed an abundance fitness of -0.235 ± 0.04.
Work on P11K yielded an abundance fitness of -0.298 ± 0.053.
P11M gave an abundance fitness of -0.259 ± 0.043.
For P11L, the abundance fitness was -0.236 ± 0.036.
Work on P11R yielded an abundance fitness of -0.288 ± 0.029.
P11I showed an abundance fitness of -0.297 ± 0.081.
For K13F, the abundance fitness was -0.243 ± 0.061.
K13A showed an abundance fitness of -0.054 ± 0.03.
K13V gave an abundance fitness of -0.263 ± 0.03.
In the case of K13S, the abundance fitness is reported as -0.018 ± 0.031.
Work on K13T yielded an abundance fitness of -0.073 ± 0.039.
K13E gave an abundance fitness of -0.032 ± 0.035.
With K13R the abundance fitness was -0.046 ± 0.026.
K13D gave an abundance fitness of -0.082 ± 0.043.
Work on K13W yielded an abundance fitness of -0.142 ± 0.032.
In the case of K13C, the abundance fitness is reported as -0.058 ± 0.041.
With K13N the abundance fitness was 0.004 ± 0.057.
Variant K13M has an abundance fitness of -0.207 ± 0.042.
For K13I, the abundance fitness was -0.286 ± 0.068.
Variant K13G has an abundance fitness of -0.027 ± 0.026.
In the case of K13Q, the abundance fitness is reported as -0.017 ± 0.038.
For K13Y, the abundance fitness was 0.022 ± 0.06.
With K13H the abundance fitness was 0.016 ± 0.056.
With K13L the abundance fitness was -0.198 ± 0.032.
For T2L, the abundance fitness was -0.05 ± 0.034.
T2Y showed an abundance fitness of -0.069 ± 0.06.
In the case of T2M, the abundance fitness is reported as -0.033 ± 0.046.
T2K showed an abundance fitness of 0 ± 0.043.
T2A showed an abundance fitness of -0.049 ± 0.032.
Work on T2H yielded an abundance fitness of -0.06 ± 0.062.
Work on T2W yielded an abundance fitness of -0.133 ± 0.038.
In the case of T2I, the abundance fitness is reported as 0.038 ± 0.058.
With T2P the abundance fitness was -0.106 ± 0.044.
T2Q gave an abundance fitness of -0.003 ± 0.042.
For T2D, the abundance fitness was -0.061 ± 0.053.
Work on T2R yielded an abundance fitness of 0.014 ± 0.029.
T2V gave an abundance fitness of -0.035 ± 0.033.
In the case of T2C, the abundance fitness is reported as -0.114 ± 0.046.
T2G gave an abundance fitness of 0 ± 0.029.
Variant T2E has an abundance fitness of 0 ± 0.04.
Variant T2F has an abundance fitness of -0.031 ± 0.063.
Variant R1D has an abundance fitness of 0.022 ± 0.076.
Variant R1P has an abundance fitness of -0.236 ± 0.1.
Work on R1F yielded an abundance fitness of -0.059 ± 0.087.
For R1C, the abundance fitness was 0.032 ± 0.059.
R1N gave an abundance fitness of 0.063 ± 0.071.
R1I gave an abundance fitness of -0.016 ± 0.073.
R1T gave an abundance fitness of 0.028 ± 0.053.
Variant R1G has an abundance fitness of -0.042 ± 0.027.
R1M showed an abundance fitness of 0.029 ± 0.055.
R1S gave an abundance fitness of -0.042 ± 0.041.
R1K showed an abundance fitness of 0.008 ± 0.055.
R1E showed an abundance fitness of -0.062 ± 0.049.
For R1W, the abundance fitness was -0.2 ± 0.037.
For R1V, the abundance fitness was -0.043 ± 0.042.
With R1H the abundance fitness was -0.034 ± 0.14.
For R1Y, the abundance fitness was -0.126 ± 0.095.
With R1L the abundance fitness was -0.079 ± 0.054.
In the case of R1A, the abundance fitness is reported as -0.077 ± 0.046.
D12K showed an abundance fitness of -0.066 ± 0.049.
In the case of D12Q, the abundance fitness is reported as -0.155 ± 0.043.
D12R showed an abundance fitness of -0.1 ± 0.028.
